For assay [1], the target named is T1, human proprotein convertase subtilisin/kexin type 9 (hPCSK9), recombinant (Homo sapiens, UniProt Q8NBP7, biotinylated with a biotinylation kit for the BLI assay only (sites not given)).
T1 construct: signal peptide in the construct; source: CHO-3E7, transiently transfected (pTT5-hPCSK9), supernatant purified (Ni-IMAC, Superdex 200 SEC)
The assay can be described thus: BLI; ForteBio Octet QKe; biotinylated hPCSK9 (50 μg/mL) immobilised on streptavidin biosensors; 2-fold dilutions of antibody (scFvs 6000-93.75 nM, mAbs 800-12.5 nM), association 300 s or longer, dissociation 600 s in SD buffer (PBS, 0.02% Tween 20, 0.1% BSA, pH 7.4); global fit. The conditions noted are these: both partners purified. On the technique in general: Biolayer interferometry detects binding as a change in optical thickness at a sensor tip.

The target of assay [2] is T1, human proprotein convertase …. The assay can be described thus: ELISA; non-competitive ELISA; hPCSK9 coated at 1 μg/mL and 2 μg/mL; purified m5E12 at 10^-1 to 10^5 ng/mL; HRP goat anti-mouse IgG; Kaff = (n − 1)/2(n[Ab']t − [Ab]t). To be noted: both partners purified.

T1 sequence (Q8NBP7 31-692): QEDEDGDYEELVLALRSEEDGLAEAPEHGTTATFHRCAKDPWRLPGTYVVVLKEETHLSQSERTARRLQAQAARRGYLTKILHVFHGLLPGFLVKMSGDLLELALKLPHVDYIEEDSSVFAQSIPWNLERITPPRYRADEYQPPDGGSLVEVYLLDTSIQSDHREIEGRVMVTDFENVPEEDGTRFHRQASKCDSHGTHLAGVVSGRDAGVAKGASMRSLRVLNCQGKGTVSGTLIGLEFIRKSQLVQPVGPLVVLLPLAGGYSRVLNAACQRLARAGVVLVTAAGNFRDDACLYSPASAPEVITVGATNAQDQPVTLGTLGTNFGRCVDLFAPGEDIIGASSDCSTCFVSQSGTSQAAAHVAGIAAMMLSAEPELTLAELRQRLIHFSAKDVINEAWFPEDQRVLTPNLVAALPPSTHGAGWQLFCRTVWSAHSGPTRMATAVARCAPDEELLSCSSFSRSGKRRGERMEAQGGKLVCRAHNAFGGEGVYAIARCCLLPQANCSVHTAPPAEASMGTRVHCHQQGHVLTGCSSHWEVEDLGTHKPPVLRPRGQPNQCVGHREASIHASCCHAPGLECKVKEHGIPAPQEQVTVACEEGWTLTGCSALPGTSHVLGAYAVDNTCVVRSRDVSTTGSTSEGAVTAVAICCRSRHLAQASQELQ

B1: m5E12scFv, murine 5E12 single-chain variable fragment (scFv, V domains shown)
VH: EVQLEQSGAELVKPGASVKLSCKASGYTFTSYWMHWVKQRPGQGLEWIGEINPSNGRTDHSEKFKNKATLTVDKSSTTAYLQLSSLTSEDSSVYYCARFHYDYDYFDYWGQGTTLTVSS
VL: DIVITQSTKFMSTSVGDRVSVTCKASRNVGNSVGWYQQKPGQSPKILIYSASYRYSGVHDRFTGSGSGTDFTLTISNVQSEDLAEYFCQQYNRYPLTFGEGTKLELK
notes: VH of m5E12; (Gly4Ser)3 linker between VH and VL; VL of m5E12; Cloned in pET-27b with the pelB signal peptide; isolated from the periplasm; also called murine 5E12 scFv; source: E. coli BL21 (DE3), periplasm, purified (Ni-NTA, Superdex 75 SEC)
Usually koff stands for the rate constant with which the complex falls apart. For the molecule B1, the off-rate (koff) in assay [1] turned out to be 0.00744 s⁻¹.

B2: m5E12, murine monoclonal antibody against hPCSK9 (IgG1, kappa) (antibody, V domains shown)
VH: EVQLEQSGAELVKPGASVKLSCKASGYTFTSYWMHWVKQRPGQGLEWIGEINPSNGRTDHSEKFKNKATLTVDKSSTTAYLQLSSLTSEDSSVYYCARFHYDYDYFDYWGQGTTLTVSS
VL: DIVITQSTKFMSTSVGDRVSVTCKASRNVGNSVGWYQQKPGQSPKILIYSASYRYSGVHDRFTGSGSGTDFTLTISNVQSEDLAEYFCQQYNRYPLTFGEGTKLELK
notes: VH of m5E12; mouse IgG1 heavy-chain constant region (isotype found with a kit; BALB/c mice); VL of m5E12; mouse kappa light-chain constant region (isotype found with a kit); Mouse IgG1 kappa; also called mAb 5E12; source: hybridoma 5E12 supernatant (screening ELISA); mouse ascites, purified (protein A)
As for B2, the Ka in assay [2] was 1.04e+09 M⁻¹.

B3: h5E12scFv, humanized 5E12 scFv by CDR grafting without back mutation (scFv, V domains shown)
VH: QVQLVQSGAEVKKPGASVKVSCKASGYTFTSYWMHWVRQAPGQGLEWMGEINPSNGRTDHSEKFKNRVTMTRDTSTSTVYMELSSLRSEDTAVYYCARFHYDYDYFDYWGQGTLVTVSS
VL: DIVMTQSPSSLSASVGDRVTITCKASRNVGNSVGWYQQKPGKAPKLLIYSASYRYSGVPSRFSGSGSGTDFTLTISSLQPEDFATYYCQQYNRYPLTFGQGTKVEIK
notes: VH of h5E12scFv: CDRs of m5E12 grafted onto the human heavy chain GenBank AMK70123.1; (Gly4Ser)3 linker; the format VH-(Gly4Ser)3-VL is told for m5E12scFv, of which this is the humanized form; VL of h5E12scFv: CDRs of m5E12 grafted onto the human light chain GenBank APZ85158.1; Cloned in pET-27b with the pelB signal peptide; isolated from the periplasm; source: E. coli BL21 (DE3), periplasm, …
Usually Kd stands for the free concentration of one partner at which half of the binding sites on the other are occupied at equilibrium, for simple one-to-one binding. B3: in assay [1], the Kd was found to be 171 nM and the koff is 0.00108 s⁻¹.

B4: h5E12scFv-bm, humanized 5E12 scFv by CDR grafting with back mutation (scFv, V domains shown)
VH: EVQLVQSGAEVKKPGASVKVSCKASGYTFTSYWMHWVKQAPGQGLEWIGEINPSNGRTDHSEKFKNKATMTVDTSTSTAYLELSSLRSEDTSVYYCARFHYDYDYFDYWGQGTLVTVSS
VL: DIVITQSTSSLSASVGDRVTITCKASRNVGNSVGWYQQKPGKAPKILIYSASYRYSGVHSRFSGSGSGTDFTLTISSLQPEDFAEYFCQQYNRYPLTFGEGTKVEIK
notes: (Gly4Ser)3 linker; the format VH-(Gly4Ser)3-VL is told for m5E12scFv, of which this is a humanized form; Cloned in pET-27b with the pelB signal peptide; isolated from the periplasm; source: E. coli BL21 (DE3), periplasm, purified (Ni-NTA, Superdex 75 SEC)
Turning to B4, in assay [1], the koff was found to be 0.01 s⁻¹.

For the origin of these results see article PMC8698692, “Generation of a Novel High-Affinity Antibody Binding to PCSK9 Catalytic Domain with Slow Dissociation Rate by CDR-Grafting, Alanine Scanning and Saturated Site-Directed Mutagenesis for Favorably Treating Hypercholesterolemia” (Biomedicines, 2021).
